Reference: publication PMC7458484 (ACS Nano, 2020)

Target: the molecule itself
Assay: SAXS; steady state, flow cell; 1.14 mg/mL disassembled Cp185 in disassembly buffer (1.5 M GuHCl, 0.5 M LiCl, 50 mM HEPES pH 7.5, 2 mM DTT); monomer to dimer

B1: full-length hepatitis B virus core protein Cp185 (natural protein)
chain: MDIDPYKEFGATVELLSFLPSDFFPSVRDLLDTASALYREALESPEHCSPHHTALRQAILCWGELMTLATWVGNNLEDPASRDLVVNYVNTNMGLKIRQLLWFHISCLTFGRETVLEYLVSFGVWIRTPPAYRPPNAPILSTLPETTVVRRRDRGRSPRRRTPSPRRRRSQSPRRRRSQSRESQC
For B1, the “stoichiometry N” value was 2.
